# Source: patent US20070128661A1 (Harvard, published 2007)
# T1: Flag-tagged T-bet S498A control mutant, immunoprecipitated from 293T cells (UniProt Q9JKD8)
# T1 sequence: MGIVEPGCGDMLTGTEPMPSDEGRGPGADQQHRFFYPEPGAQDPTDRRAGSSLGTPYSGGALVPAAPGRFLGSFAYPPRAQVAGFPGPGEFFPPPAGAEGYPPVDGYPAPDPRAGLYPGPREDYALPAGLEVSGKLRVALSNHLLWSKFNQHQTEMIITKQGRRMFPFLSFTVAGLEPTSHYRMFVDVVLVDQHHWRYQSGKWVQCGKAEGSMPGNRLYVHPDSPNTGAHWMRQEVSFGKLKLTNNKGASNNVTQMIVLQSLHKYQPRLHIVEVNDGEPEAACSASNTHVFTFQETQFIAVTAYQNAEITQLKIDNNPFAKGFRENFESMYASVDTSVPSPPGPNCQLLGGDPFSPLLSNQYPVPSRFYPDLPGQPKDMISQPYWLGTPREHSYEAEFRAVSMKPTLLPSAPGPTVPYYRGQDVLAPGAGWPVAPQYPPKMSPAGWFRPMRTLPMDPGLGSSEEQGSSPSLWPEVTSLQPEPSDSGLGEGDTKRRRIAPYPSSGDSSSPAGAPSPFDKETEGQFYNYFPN
# T2: Flag-tagged T-bet (wild type), immunoprecipitated from 293T cells (UniProt Q9JKD8)
# T2 sequence: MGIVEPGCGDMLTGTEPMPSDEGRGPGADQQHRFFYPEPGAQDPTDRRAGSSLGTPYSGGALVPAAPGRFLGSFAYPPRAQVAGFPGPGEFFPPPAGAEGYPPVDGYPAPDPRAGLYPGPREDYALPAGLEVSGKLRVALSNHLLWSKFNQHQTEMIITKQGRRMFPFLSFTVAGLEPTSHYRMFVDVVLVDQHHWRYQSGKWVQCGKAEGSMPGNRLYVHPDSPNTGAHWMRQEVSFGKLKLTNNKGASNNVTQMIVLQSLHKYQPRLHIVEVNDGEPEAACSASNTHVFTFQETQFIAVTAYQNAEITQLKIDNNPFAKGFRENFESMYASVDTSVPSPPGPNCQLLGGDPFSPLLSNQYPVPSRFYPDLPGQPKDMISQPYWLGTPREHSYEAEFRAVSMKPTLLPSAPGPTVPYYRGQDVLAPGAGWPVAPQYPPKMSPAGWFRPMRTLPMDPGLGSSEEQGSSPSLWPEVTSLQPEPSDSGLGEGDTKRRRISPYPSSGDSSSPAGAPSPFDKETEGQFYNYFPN
# T3: Flag-tagged T-bet S508A mutant, immunoprecipitated from 293T cells (UniProt Q9JKD8)
# T3 sequence: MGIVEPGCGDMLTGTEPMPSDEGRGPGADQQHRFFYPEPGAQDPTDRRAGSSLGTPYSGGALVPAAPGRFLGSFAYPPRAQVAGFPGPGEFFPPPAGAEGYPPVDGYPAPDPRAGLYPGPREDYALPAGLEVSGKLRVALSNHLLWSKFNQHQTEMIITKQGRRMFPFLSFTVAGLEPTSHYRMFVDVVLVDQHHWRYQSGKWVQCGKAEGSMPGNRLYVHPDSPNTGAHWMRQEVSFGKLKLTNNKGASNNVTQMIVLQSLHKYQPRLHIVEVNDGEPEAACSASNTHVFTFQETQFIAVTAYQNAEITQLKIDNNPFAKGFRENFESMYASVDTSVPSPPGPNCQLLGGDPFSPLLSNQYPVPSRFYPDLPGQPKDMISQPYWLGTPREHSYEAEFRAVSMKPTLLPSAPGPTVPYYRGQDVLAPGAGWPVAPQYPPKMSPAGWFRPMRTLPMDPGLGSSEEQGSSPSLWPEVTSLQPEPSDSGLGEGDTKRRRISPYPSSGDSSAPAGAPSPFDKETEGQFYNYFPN
# Legend:
# [1] = target: T1, Flag-tagged T-bet S498A control mutant, immunoprecipitated from 293T cells
# [2] = target: T2, Flag-tagged T-bet (wild type), immunoprecipitated from 293T cells
# [3] = target: T3, Flag-tagged T-bet S508A mutant, immunoprecipitated from 293T cells
# RelA (NF-kB p65) = conditions: ChIP real-time PCR; binding increase in T-bet-/- Th1 cells versus wt
# [4] = target: endogenous RelA in mouse Th1 cells (mouse, UniProt Q04207 1-549); test: cell-based or functional assay
# Chain of endogenous RelA in mouse Th1 cells (Q04207 whole entry): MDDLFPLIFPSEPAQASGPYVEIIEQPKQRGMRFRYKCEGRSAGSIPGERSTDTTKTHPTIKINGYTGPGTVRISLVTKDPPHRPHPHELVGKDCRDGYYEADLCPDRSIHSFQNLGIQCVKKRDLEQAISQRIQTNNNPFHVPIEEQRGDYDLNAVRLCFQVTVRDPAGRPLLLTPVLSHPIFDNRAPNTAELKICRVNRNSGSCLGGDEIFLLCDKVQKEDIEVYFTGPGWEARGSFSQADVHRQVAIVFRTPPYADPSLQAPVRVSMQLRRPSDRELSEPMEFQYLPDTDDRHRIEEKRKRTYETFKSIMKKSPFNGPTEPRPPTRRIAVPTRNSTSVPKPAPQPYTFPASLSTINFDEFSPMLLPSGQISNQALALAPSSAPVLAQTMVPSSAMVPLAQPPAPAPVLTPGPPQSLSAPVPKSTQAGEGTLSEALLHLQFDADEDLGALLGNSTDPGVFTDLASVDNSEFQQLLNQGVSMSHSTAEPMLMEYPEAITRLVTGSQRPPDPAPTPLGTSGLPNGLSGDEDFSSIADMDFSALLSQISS
Molecule,"in vitro phosphorylation of T-bet (γ-[32P]ATP, autoradiography) [1]","in vitro phosphorylation of T-bet (γ-[32P]ATP, autoradiography) [2]","in vitro phosphorylation of T-bet (γ-[32P]ATP, autoradiography) [3]",also measured
glycogen synthase kinase-3 (recombinant),,,,in vitro phosphorylation of T-bet by GSK-3 after prephosphorylation with CKI (γ-[32P]ATP) [1]: GSK-3 induced wt levels of phosphorylation in the S498A mutant; in vitro phosphorylation of T-bet by GSK-3 after prephosphorylation with CKI (γ-[32P]ATP) [2]: Hyperphosphorylation of T-bet by GSK-3 was apparent; in vitro phosphorylation of T-bet by GSK-3 after prephosphorylation with CKI (γ-[32P]ATP) [3]: GSK-3-mediated phosphorylation was markedly decreased in the S508A mutant
casein kinase I (recombinant),"CKI-mediated phosphorylation of the S508A mutant, but not the S498A control mutant, was dramatically reduced compared to wt","CKI, but not active ERK, phosphorylated T-bet protein in vitro","CKI-mediated phosphorylation of the S508A mutant, but not the S498A control mutant, was dramatically reduced compared to wt",
PKA (recombinant),"PKA-induced phosphorylation was not different among the wt, S508A and S498A T-bet proteins",T-bet was also phosphorylated by PKA but with 1000-fold lesser efficiency than CKI,"PKA-induced phosphorylation was not different among the wt, S508A and S498A T-bet proteins",
IL-2 promoter chromatin (ChIP amplicon),,,,binding signal (RelA (NF-kB p65)): 4.5 fold
active ERK (recombinant),,"CKI, but not active ERK, phosphorylated T-bet protein in vitro",,
"endogenous T-bet in mouse Th1 cells (other, UniProt Q9JKD8 1-530, looked up, phosphoserine at S508 found by mass spectrometry in primary Th1 cells) MGIVEPGCGDMLTGTEPMPSDEGRGPGADQQHRFFYPEPGAQDPTDRRAGSSLGTPYSGGALVPAAPGRFLGSFAYPPRAQVAGFPGPGEFFPPPAGAEGYPPVDGYPAPDPRAGLYPGPREDYALPAGLEVSGKLRVALSNHLLWSKFNQHQTEMIITKQGRRMFPFLSFTVAGLEPTSHYRMFVDVVLVDQHHWRYQSGKWVQCGKAEGSMPGNRLYVHPDSPNTGAHWMRQEVSFGKLKLTNNKGASNNVTQMIVLQSLHKYQPRLHIVEVNDGEPEAACSASNTHVFTFQETQFIAVTAYQNAEITQLKIDNNPFAKGFRENFESMYASVDTSVPSPPGPNCQLLGGDPFSPLLSNQYPVPSRFYPDLPGQPKDMISQPYWLGTPREHSYEAEFRAVSMKPTLLPSAPGPTVPYYRGQDVLAPGAGWPVAPQYPPKMSPAGWFRPMRTLPMDPGLGSSEEQGSSPSLWPEVTSLQPEPSDSGLGEGDTKRRRISPYPSSGDSSSPAGAPSPFDKETEGQFYNYFPN",,,,"IL-2 promoter binding of RelA by ChIP with real-time PCR, T-bet-/- versus wt Th1 cells [4]: 4.5 fold"
